Assay results from the nanobody polyreactivity screen of Harvey et al. (2022).

Experiment: yeast display, Sf9 membrane polyspecificity reagent, FACS + sequencing; frameworks hold sequencing errors
Method in brief: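 Galactose induction of a Saccharomyces cerevisiae BJ5465 synthetic nanobody display library ran 36–48 hours. The cells were then stained for 1 hour at 4 °C with 10% biotinylated, detergent-solubilized Sf9 membrane reagent, pulled down on streptavidin microbeads and FACS-sorted into low and high (top ~1%) gates on expression and reagent-binding fluorescence. Labels for polyreactivity follow the gate of origin.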

**Q.** For “QVQLVESGGGLVQAGGSLRLSCAASGRIFAYYLMGCYRQAPGKEREFVAAISWSGGRTYYADSVKGRFTISRDNAKNTVYLQMNSLKPEDTAVYYCNAGRPLWLAYGMDYWGQGTQVTVSS”, which “polyreactivity (PSR sort gate)” value is on record?
**A.** The value was “low polyreactivity”.

**Q.** With “QVQLVESGGGLVQAGGSLRLSCAASGRIFAYYVMGWYRQAPGKERELVAAITWSGTSTYYADSVKGRFTISRDNAKNTVYLQMNSLKPEDTAVYYCNAVWSRSTRGYDYWGQGTQVSVSS” as the sequence, how does the “polyreactivity (PSR sort gate)” value read?
**A.** The value was “high polyreactivity”.

**Q.** Which “polyreactivity (PSR sort gate)” value does the source give for “QVQLVESGGGLVQAGGSLRLSCAASGRIFCGYMGWYRQAPGKEREFVAAISVRGGGTYYADSVKGRFTISRDNAKNTVYLQMNSLKPEDTAVDYCNTRGGWPYDYWGQGTQVTVSS” here?
**A.** Its value is “low polyreactivity”.

**Q.** For “QVQLVESGGGLVQAGGSLRLSCAASGRIFDANAMGWYRQAPGKERELVAAITYSGGRTYYADSVKGRFTISRDNAKNTVYLQMNSLKPEDTAVYYCAKRYAYIYDSWGQGTQVTVSS”, which “polyreactivity (PSR sort gate)” value is on record?
**A.** The value was “low polyreactivity”.

**Q.** Which “polyreactivity (PSR sort gate)” value does the source give for “QVQLVESGGGLVQAGGSLRLSCAASGRIFDDNAMGWYRQAPGKERELVADINNGTSTNYADSVKGRFTISRDNAKNTVYLQMNSLKPEDTAVYYCAADDYIYYRILGDSFVYKAYGYWGQGTQVTVSS” here?
**A.** The value was “low polyreactivity”.

**Q.** With “QVQLVESGGGLVQAGGSLRLSCAASGRIFDEYALGWYRQAPGKEREFVAAITYSAGSTYYADSVKGRFTISRDNAKNTVYLQMNSLKPEDTAVYDCAADRYYWWWYTYNYWGQGTQVTVSS” as the sequence, how does the “polyreactivity (PSR sort gate)” value read?
**A.** The value was “low polyreactivity”.

**Q.** With “QVQLVESGGGLVQAGGSLRLSCAASGRIFDEYAMGWYRQAPGKERELVAAITSDGTTNYADSVKGRFTISRDNAKNTVYLQMNSLKPEDTAVYYCNAARPQSEPASQLDLYGYDYWGQGTQVTVSS” as the sequence, how does the “polyreactivity (PSR sort gate)” value read?
**A.** The value was “low polyreactivity”.

**Q.** With “QVQLVESGGGLVQAGGSLRLSCAASGRIFDFNAMGWYRQAPGKERELVAAITWSGTSTYYADSVKGRFTISRDNAKNTVYLQMNSLKPEDTAVYYCAVDYSPWWAFSYSDYYYWGQGTQVTVSS” as the sequence, how does the “polyreactivity (PSR sort gate)” value read?
**A.** The value was “high polyreactivity”.

**Q.** Which “polyreactivity (PSR sort gate)” value does the source give for “QVQLVESGGGLVQAGGSLRLSCAASGRIFDFYAMGWYRQAPGKERELVAAISWDGSDTYYADSVKGRFTISRDNAKNTVYLQMNSLKPEDTAVYYCAADYYSPSGQEYNYWGQGTQVTVSS” here?
**A.** Its value is “high polyreactivity”.

**Q.** Which “polyreactivity (PSR sort gate)” value does the source give for “QVQLVESGGGLVQAGGSLRLSCAASGRIFDGNALGWYRKAPGKERELFAAISWTGGSTYYADSVKGRYTISRDNAKNTVYLQLNSLKPEDTAVYYCAADSGWWLDQLSWYDYWGQGTQVTVSS” here?
**A.** Its value is “low polyreactivity”.

**Q.** For “QVQLVESGGGLVQAGGSLRLSCAASGRIFDGNAMGWYRQAPGKERELVAAISRIGGTYYADSVKGRFTISRDNAKNTVYLQMNSLKPEDTAVYYCAADPSSVGYHVEYDYWGQGTQVTVSS”, which “polyreactivity (PSR sort gate)” value is on record?
**A.** Its value is “low polyreactivity”.

**Q.** Which “polyreactivity (PSR sort gate)” value does the source give for “QVQLVESGGGLVQAGGSLRLSCAASGRIFDGNAMGWYRQAPGKERELVATITRGGRTNYADSVKGRFTISRDNAKNTVYLQMNSLKPEDTAVYYCNARGSERVDTYSLYDYWGQGTQVTVSS” here?
**A.** Its value is “low polyreactivity”.

**Q.** For “QVQLVESGGGLVQAGGSLRLSCAASGRIFDGNVMGWYRQAPGKERELVAAISRSGVRTYYADSVKGRFTISRDNAKKTVYLQMNSLKPEDTAVYYCAADVYRQFYPFKSDYWGQGTQVTVSS”, which “polyreactivity (PSR sort gate)” value is on record?
**A.** The value was “high polyreactivity”.

**Q.** Which “polyreactivity (PSR sort gate)” value does the source give for “QVQLVESGGGLVQAGGSLRLSCAASGRIFDIYAMGWYRQAPGKERELVAAIDESGGSTYYADSVKGRFTISRDNAKNTVYLQMNSLKPEDTAVYYCATDDTWTISYGWYWFTYEYWGQGTQVTVSS” here?
**A.** The value was “low polyreactivity”.

**Q.** For “QVQLVESGGGLVQAGGSLRLSCAASGRIFDIYAMGWYRQAPGKERELVAAITNSGVSTYYADSVKGRFTISRDNAKNTVYLQMNSLKPEDTAVYYCNAGDFERAVVVFIQHGGYYWGQGTQVTVSS”, which “polyreactivity (PSR sort gate)” value is on record?
**A.** Its value is “low polyreactivity”.

**Q.** For “QVQLVESGGGLVQAGGSLRLSCAASGRIFDIYAMGWYRQAPGKERELVAGITSVGSTNYADSVKGRFTISRDNAKNTVYLQMNSLKPEDTAFYYCAADTSVHSEVDYWGQGTQGTVSS”, which “polyreactivity (PSR sort gate)” value is on record?
**A.** The value was “low polyreactivity”.

**Q.** Which “polyreactivity (PSR sort gate)” value does the source give for “QVQLVESGGGLVQAGGSLRLSCAASGRIFDKNAMGWYRQAPGKERELVAAINRSGGRTYYADSVKGRFTISRDNAKNTVYLQMNSLKPEDTAVYYCAADTQGSRYDYWGQGTQVTVSS” here?
**A.** The value was “high polyreactivity”.

**Q.** Which “polyreactivity (PSR sort gate)” value does the source give for “QVQLVESGGGLVQAGGSLRLSCAASGRIFDLNAMGWYRQAPGKERELVAAITWSGDSTYYADSVKGRFTISRDNAKNTVYLQMNSLKPEDTAVYYCAAASRTSYSWVDYEFDYWGQGTQVTVSS” here?
**A.** Its value is “low polyreactivity”.

**Q.** Which “polyreactivity (PSR sort gate)” value does the source give for “QVQLVESGGGLVQAGGSLRLSCAASGRIFDLYAMGWYRQAPGKERELVASITTIGGRTYYADSVKGRFTISRDNAKNTVYLQMNSLKPEDTAVYYCAKSRWLYTTRSGYDYWGQGTQVTVSS” here?
**A.** Its value is “high polyreactivity”.

**Q.** Which “polyreactivity (PSR sort gate)” value does the source give for “QVQLVESGGGLVQAGGSLRLSCAASGRIFDLYTMGWYRQAPGKERELVAAIRWSDGSTYYADSVKGRFTISRDNAKNTVYLQMNSLKPEDTAVYYCATDTAILINFVLYDYWGQGTQVTVSL” here?
**A.** Its value is “low polyreactivity”.

**Q.** For “QVQLVESGGGLVQAGGSLRLSCAASGRIFDNYGMGWYRQAPGKERELVAAISSGGGRYYADSVTGRFTISRDNAKNTVYFQMHSLKPEDTAVYYCAKDPKYHLSGGYDYWGQGTQVTVSS”, which “polyreactivity (PSR sort gate)” value is on record?
**A.** The value was “low polyreactivity”.

**Q.** Which “polyreactivity (PSR sort gate)” value does the source give for “QVQLVESGGGLVQAGGSLRLSCAASGRIFDNYGMGWYRQAPGKERELVAAISSGGGTYYADSVKGRFTISRDNAKNTVYLQMNSLKPEDTAVYYCAKRRVYDRSFGRYDYWGQGTQVTVSS” here?
**A.** Its value is “low polyreactivity”.

**Q.** With “QVQLVESGGGLVQAGGSLRLSCAASGRIFDNYVMGWYRQAPGKERELVAAISSGGGTYYADSVKGRFTISRDNAKNTVYLQMNSLKPEDTAVYYCAKRRVYDRSFGRYDYCGQGTQVTVSS” as the sequence, how does the “polyreactivity (PSR sort gate)” value read?
**A.** The value was “low polyreactivity”.

**Q.** For “QVQLVESGGGLVQAGGSLRLSCAASGRIFDNYVMGWYRQAPGKERELVAAISSGGGTYYADSVKGRFTISRDNAKNTVYVQMNSLKPEDTAVYYCAKRRVYDRSFGRYDYWGQGTQVTVSS”, which “polyreactivity (PSR sort gate)” value is on record?
**A.** The value was “low polyreactivity”.

**Q.** Which “polyreactivity (PSR sort gate)” value does the source give for “QVQLVESGGGLVQAGGSLRLSCAASGRIFDPNVMGWYRQAPGKERELVAAIRTSGGRTYYADSVKGRFTISRDNAKNTVYLQMHSLKPEDTAVYYCAKVNRAFPKYLIYGYWGQGTQVTVSS” here?
**A.** The value was “high polyreactivity”.

**Q.** Which “polyreactivity (PSR sort gate)” value does the source give for “QVQLVESGGGLVQAGGSLRLSCAASGRIFDPYAMGWYRQAPGKERELVAAIDWSDGGTYYADSVKGRFTISRDNAKNTVYLQMNSLKPEDTAVYYCAADLLDISYYDGMDYWGQGTQVTVSS” here?
**A.** The value was “low polyreactivity”.

**Q.** For “QVQLVESGGGLVQAGGSLRLSCAASGRIFDQNAMGWYRQAPGKDRELVAAISSSGGRTYYADSVKGRFTISRDNAKNPVYLQMNSLKPEDTAVYYCNKDRTVTTYEYWGQGTQVTVSS”, which “polyreactivity (PSR sort gate)” value is on record?
**A.** The value was “high polyreactivity”.

**Q.** For “QVQLVESGGGLVQAGGSLRLSCAASGRIFDRKAMGWYRQAPGKERELVAAISSRDGSTYYADSVKGRFTISRDNAKNTVYLQMNSLKPEDTGVYYCNRVSRGPVGGYYWGQGTQVTVSS”, which “polyreactivity (PSR sort gate)” value is on record?
**A.** Its value is “high polyreactivity”.

**Q.** Which “polyreactivity (PSR sort gate)” value does the source give for “QVQLVESGGGLVQAGGSLRLSCAASGRIFDRNAMGWYRQAPGKERELVAAIDDSGGDTSYADSVKGRFTISRDNAKNTVYLQMNSLKPEDTAVYYCNAGYADFVTYPRYYYWGQGTQVTVSS” here?
**A.** The value was “low polyreactivity”.

**Q.** With “QVQLVESGGGLVQAGGSLRLSCAASGRIFDRYAIGWYRHAPGKERELVAAITSGGDTNYADSVKGRFTISRDNAKITVYLPKNSLKPEDTAVYYCNTRLVLGGGRRHDYWGQGTQVTVSS” as the sequence, how does the “polyreactivity (PSR sort gate)” value read?
**A.** The value was “low polyreactivity”.

**Q.** For “QVQLVESGGGLVQAGGSLRLSCAASGRIFDRYALGWYRQAPGTERELVAVISQSGGRTYYADSVKGRFTISRDNAKNTVYLEMNSLKPEDSAVYYCNKRYRNRYSYSEGDYWGQGTQVTVSS”, which “polyreactivity (PSR sort gate)” value is on record?
**A.** The value was “high polyreactivity”.
